Data taken from paper PMC3040172, “The Impact of the C-Terminal Domain on the Interaction of Human DNA Topoisomerase II α and β with DNA”.

How the values were obtained:
Conditions in all cases: protein: recombinant; chain copies: 2; blunt; as printed S2 is not the exact complement of S1: 2 mismatches at S1 positions 34-35 (possible typo)
[1] = target: T1, DNA topoisomerase II alpha, full length (human, UniProt P11388 1-1531); experiment: fluorescence anisotropy; 10 mM CaCl2; 50 mM Tris pH 8, 5% glycerol, 50 mM KCl, 1% Triton X-100, 100 µg/ml acetylated BSA, 20°C; HEX oligo printed as 1 µM; 10 mM MgCl2 or CaCl2 where described
T1 sequence (P11388 whole entry): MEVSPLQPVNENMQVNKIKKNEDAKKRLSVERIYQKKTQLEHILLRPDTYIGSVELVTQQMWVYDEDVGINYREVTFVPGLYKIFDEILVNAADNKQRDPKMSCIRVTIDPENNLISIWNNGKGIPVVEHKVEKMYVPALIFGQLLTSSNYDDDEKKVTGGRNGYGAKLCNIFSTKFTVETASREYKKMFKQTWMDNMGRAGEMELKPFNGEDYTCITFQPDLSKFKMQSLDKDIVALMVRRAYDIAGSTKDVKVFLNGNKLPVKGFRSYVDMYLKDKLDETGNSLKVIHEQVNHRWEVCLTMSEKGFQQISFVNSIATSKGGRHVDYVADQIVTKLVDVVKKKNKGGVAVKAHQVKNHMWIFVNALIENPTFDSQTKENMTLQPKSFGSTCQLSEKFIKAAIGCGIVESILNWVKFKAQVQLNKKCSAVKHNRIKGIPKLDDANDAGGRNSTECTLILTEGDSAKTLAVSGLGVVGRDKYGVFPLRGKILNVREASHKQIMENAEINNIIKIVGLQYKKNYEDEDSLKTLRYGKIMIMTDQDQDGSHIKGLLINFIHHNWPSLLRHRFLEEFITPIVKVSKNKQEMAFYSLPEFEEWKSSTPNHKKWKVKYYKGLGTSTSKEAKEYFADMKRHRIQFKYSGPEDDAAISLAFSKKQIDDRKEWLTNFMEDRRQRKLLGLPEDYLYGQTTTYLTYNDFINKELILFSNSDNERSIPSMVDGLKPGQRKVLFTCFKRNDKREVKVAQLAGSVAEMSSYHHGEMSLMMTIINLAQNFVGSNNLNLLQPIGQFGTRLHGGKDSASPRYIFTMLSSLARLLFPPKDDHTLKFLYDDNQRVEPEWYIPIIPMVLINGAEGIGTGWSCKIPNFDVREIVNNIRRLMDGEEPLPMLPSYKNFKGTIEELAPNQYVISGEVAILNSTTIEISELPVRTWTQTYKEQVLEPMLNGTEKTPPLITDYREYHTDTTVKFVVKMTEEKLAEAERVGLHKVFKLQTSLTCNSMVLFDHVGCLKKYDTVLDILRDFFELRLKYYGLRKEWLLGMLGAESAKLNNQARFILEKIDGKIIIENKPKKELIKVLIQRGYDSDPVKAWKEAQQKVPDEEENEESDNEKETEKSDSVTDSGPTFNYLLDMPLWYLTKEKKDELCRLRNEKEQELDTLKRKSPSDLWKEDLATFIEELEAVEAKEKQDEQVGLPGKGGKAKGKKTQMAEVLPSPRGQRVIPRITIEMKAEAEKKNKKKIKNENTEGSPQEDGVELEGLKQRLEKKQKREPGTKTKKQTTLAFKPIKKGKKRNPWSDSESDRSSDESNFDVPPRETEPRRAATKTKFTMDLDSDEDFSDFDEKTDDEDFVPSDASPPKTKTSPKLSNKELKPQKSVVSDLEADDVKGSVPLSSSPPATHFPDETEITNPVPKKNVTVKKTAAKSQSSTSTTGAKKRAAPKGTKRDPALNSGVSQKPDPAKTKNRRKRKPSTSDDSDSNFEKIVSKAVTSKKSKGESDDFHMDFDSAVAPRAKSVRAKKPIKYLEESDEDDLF

[2] = target: T2, DNA topoisomerase II beta, full length (human, UniProt Q02880 1-1626); experiment: as above
T2 sequence (Q02880 whole entry): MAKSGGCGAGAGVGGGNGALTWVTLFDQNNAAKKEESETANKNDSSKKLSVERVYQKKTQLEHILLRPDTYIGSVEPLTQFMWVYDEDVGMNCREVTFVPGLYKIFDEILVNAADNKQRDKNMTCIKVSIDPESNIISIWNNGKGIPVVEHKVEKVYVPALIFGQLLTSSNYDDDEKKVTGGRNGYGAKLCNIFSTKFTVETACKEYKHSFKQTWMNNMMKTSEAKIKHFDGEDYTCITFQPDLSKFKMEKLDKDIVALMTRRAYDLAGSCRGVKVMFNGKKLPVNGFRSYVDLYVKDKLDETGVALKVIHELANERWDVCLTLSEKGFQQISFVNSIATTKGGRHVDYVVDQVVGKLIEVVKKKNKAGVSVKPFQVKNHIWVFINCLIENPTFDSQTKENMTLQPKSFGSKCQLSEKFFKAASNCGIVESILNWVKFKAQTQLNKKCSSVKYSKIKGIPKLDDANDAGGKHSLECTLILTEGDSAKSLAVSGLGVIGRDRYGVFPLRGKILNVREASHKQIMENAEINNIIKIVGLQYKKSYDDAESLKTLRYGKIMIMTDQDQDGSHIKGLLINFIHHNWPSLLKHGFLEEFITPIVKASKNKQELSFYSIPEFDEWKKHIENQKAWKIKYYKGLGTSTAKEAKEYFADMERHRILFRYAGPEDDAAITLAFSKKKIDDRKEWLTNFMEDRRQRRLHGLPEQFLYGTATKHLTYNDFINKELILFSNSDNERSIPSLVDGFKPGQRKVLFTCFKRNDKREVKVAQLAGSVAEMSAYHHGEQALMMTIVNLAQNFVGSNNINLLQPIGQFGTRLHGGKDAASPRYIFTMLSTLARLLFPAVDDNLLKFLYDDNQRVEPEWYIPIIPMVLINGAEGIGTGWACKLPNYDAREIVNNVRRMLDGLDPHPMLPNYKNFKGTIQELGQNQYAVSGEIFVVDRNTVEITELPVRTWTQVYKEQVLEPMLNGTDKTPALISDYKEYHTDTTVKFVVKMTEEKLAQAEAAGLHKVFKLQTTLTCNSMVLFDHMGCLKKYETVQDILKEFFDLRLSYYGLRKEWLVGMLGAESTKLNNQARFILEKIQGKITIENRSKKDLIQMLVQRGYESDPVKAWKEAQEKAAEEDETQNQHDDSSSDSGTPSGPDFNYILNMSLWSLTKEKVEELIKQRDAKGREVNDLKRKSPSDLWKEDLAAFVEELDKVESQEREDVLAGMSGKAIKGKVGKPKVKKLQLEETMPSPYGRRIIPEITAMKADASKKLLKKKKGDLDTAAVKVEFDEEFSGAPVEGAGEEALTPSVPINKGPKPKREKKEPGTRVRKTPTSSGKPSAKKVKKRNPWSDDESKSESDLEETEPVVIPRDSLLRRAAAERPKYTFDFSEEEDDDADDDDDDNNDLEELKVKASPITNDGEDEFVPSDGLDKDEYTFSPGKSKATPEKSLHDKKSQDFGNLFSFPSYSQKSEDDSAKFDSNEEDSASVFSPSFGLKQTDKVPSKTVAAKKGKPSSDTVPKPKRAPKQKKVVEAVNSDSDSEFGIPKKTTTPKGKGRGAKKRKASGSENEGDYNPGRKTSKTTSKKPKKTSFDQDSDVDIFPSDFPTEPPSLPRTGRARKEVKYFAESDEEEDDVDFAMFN

[3] = target: T1, DNA topoisomerase II alpha, full length; experiment: fluorescence anisotropy; no metal; 50 mM Tris pH 8, 5% glycerol, 50 mM KCl, 1% Triton X-100, 100 µg/ml acetylated BSA, 20°C; HEX oligo printed as 1 µM; 10 mM MgCl2 or CaCl2 where described
[4] = target: T2, DNA topoisomerase II beta, full length; experiment: as above
[5] = target: T1, DNA topoisomerase II alpha, full length; experiment: fluorescence anisotropy; 10 mM MgCl2; 50 mM Tris pH 8, 5% glycerol, 50 mM KCl, 1% Triton X-100, 100 µg/ml acetylated BSA, 20°C; HEX oligo printed as 1 µM; 10 mM MgCl2 or CaCl2 where described
[6] = target: T2, DNA topoisomerase II beta, full length; experiment: as above
[7] = target: T1, DNA topoisomerase II alpha, full length; experiment: fluorescence anisotropy; 50 mM Tris pH 8, 5% glycerol, 50 mM KCl, 1% Triton X-100, 100 µg/ml acetylated BSA, 20°C; HEX oligo printed as 1 µM; 10 mM MgCl2 or CaCl2 where described
[8] = target: Truncated topoisomerase II alpha (C-terminal domain deleted) (human, UniProt P11388 29-1242); experiment: as above
Truncated topoisomerase II alpha (C-terminal domain deleted), sequence (P11388 29-1242, stated change not applied): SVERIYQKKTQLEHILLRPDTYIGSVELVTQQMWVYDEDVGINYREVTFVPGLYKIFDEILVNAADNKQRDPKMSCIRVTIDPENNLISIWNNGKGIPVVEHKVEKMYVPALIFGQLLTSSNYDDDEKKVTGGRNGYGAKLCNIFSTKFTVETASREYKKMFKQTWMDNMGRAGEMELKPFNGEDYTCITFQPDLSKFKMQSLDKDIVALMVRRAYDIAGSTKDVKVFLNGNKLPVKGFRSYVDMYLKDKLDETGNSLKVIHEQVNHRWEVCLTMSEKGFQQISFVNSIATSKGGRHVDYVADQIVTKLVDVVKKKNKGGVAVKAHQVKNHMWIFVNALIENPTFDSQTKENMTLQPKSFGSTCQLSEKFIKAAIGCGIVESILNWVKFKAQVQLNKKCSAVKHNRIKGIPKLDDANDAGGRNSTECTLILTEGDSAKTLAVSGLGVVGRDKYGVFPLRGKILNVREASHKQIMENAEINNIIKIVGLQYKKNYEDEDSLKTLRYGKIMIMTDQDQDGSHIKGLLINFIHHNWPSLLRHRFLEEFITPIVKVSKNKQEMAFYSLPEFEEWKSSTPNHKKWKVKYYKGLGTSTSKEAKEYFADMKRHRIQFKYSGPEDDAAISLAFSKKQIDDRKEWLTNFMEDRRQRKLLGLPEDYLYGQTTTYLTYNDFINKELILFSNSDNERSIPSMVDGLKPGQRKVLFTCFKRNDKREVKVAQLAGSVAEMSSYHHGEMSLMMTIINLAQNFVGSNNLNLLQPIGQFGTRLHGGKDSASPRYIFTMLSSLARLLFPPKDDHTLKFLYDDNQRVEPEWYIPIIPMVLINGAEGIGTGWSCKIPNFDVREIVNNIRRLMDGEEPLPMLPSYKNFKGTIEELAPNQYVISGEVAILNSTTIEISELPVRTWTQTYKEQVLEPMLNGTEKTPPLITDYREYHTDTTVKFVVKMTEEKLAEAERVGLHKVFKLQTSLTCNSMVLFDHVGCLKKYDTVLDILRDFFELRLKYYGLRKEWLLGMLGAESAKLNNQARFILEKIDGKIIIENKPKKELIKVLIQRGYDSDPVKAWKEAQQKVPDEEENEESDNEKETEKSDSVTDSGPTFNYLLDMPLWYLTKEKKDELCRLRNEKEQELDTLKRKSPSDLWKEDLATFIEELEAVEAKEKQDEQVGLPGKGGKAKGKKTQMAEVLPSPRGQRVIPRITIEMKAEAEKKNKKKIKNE

[9] = target: Truncated topoisomerase II beta (C-terminal domain deleted) (human, UniProt Q02880 51-1268); experiment: as above
[10] = target: T2, DNA topoisomerase II beta, full length; experiment: as above

B1: 40 bp oligo AB (dsDNA)
DNA 1: CGCAATCTGACAATGCGCTCATCGTCATCCTCGCGACGCG
DNA 2: CGCGTGCCGAGGATGACGATGAGCGCATTGTCAGATTGCG
- Kd [1]: 178 nM
- Kd [2]: 84.3 nM
- Kd [3]: 160 nM
- Kd [4]: 46.4 nM
- Kd [5]: 150 nM
- Kd [6]: 55.4 nM
- Kd [7]: 189 nM
- Kd [8]: 116 nM
- Kd [9]: 17.8 nM
- Kd [10]: 72.9 nM
